Molecular target: recombinant TdfH (Neisseria gonorrhoeae TonB-dependent transporter, NGO0952) (Neisseria gonorrhoeae)
Test: ITC; Nano ITC, 25°C, 1x PBS with 0.05% DDM; TdfH (300 μl, 20 μM) in the cell, CP sample (200 μM) in 20 injections of 2.5 μl; fitted with NanoAnalyze to a two-state (multisite) model, TKO to a single-site model

B1: human calprotectin (heterodimer of S100A8 and S100A9) (complex)
chain 1: MLTELEKALNSIIDVYHKYSLIKGNFHAVYRDDLKKLLETECPQYIRKKGADVWFKELDINTDGAVNFQEFLILVIKMGVAAHKKSHEESHKE
chain 2: KMSQLERNIETIINTFHQYSVKLGHPDTLNQGEFKELVRKDLQNFLKKENKNEKVIEHIMEDLDTNADKQLSFEEFIMLMARLTWASHEKMHEGDEGPGHHHKPGLGEGTP
KD, high-affinity interaction (two-state model): 0.004 µM
KD, low-affinity interaction (two-state model): 35 µM

— PMC7251212
